T1: ADP320
T1 chain: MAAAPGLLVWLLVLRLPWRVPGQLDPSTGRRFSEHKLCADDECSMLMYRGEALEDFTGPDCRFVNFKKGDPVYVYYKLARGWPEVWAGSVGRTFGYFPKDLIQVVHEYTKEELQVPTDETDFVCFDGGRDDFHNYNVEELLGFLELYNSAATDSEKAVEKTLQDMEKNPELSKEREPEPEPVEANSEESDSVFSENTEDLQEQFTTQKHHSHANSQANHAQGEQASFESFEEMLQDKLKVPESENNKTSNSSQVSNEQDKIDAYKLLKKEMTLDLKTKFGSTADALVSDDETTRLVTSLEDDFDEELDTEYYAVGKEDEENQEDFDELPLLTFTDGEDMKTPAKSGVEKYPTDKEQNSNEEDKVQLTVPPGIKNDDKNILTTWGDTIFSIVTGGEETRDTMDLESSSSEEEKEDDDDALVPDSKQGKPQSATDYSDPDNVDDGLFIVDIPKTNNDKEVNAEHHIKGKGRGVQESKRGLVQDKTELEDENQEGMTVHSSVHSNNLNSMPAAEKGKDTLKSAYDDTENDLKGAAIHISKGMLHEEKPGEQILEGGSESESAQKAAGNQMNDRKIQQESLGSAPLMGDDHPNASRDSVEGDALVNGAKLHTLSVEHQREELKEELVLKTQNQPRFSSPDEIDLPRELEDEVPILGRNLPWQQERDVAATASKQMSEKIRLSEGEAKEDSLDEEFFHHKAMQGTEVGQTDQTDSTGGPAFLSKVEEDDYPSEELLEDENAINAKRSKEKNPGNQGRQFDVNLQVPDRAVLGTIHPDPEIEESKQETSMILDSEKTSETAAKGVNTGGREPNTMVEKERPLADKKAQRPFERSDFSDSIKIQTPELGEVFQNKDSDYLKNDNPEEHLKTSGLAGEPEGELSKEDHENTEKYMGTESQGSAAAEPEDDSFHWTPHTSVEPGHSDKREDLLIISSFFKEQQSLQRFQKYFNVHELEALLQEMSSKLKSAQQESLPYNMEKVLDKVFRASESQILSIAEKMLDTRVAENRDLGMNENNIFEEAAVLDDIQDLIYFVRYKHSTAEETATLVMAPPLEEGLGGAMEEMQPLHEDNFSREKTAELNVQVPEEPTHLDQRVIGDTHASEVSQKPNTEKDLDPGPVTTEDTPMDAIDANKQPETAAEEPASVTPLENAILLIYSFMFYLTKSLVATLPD

T2: ADP375
T2 chain: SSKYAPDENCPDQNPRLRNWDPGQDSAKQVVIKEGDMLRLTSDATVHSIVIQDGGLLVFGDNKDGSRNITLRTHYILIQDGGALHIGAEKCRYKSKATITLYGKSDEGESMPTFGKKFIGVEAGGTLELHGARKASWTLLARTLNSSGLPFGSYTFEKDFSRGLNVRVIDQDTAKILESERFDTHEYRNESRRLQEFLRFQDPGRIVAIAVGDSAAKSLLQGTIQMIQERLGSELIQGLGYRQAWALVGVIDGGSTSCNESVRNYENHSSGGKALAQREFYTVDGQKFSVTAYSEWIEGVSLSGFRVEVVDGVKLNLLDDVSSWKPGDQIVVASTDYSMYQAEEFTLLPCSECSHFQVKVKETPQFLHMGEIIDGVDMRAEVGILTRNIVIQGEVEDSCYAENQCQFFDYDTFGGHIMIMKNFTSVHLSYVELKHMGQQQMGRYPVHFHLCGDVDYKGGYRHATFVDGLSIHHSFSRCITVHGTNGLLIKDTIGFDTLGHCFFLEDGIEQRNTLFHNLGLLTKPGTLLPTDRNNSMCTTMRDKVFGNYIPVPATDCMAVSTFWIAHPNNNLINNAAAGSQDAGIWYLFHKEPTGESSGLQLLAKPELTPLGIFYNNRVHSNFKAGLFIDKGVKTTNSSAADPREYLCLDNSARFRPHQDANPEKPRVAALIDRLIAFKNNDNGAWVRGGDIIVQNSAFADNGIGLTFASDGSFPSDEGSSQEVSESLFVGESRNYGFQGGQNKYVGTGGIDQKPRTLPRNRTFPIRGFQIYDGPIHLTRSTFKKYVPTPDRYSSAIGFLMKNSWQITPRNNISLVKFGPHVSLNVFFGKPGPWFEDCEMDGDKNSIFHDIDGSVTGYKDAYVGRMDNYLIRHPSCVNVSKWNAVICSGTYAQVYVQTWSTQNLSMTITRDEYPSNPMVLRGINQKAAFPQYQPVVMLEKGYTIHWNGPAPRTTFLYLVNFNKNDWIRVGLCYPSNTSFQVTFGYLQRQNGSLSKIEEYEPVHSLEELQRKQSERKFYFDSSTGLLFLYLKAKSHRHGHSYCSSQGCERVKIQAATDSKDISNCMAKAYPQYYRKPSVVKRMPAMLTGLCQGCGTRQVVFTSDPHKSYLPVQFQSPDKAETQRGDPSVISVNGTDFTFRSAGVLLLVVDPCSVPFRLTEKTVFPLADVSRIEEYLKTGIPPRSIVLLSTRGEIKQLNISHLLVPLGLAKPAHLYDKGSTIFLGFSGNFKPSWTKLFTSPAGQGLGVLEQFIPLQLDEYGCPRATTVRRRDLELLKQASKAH

T3: ADP389
T3 chain: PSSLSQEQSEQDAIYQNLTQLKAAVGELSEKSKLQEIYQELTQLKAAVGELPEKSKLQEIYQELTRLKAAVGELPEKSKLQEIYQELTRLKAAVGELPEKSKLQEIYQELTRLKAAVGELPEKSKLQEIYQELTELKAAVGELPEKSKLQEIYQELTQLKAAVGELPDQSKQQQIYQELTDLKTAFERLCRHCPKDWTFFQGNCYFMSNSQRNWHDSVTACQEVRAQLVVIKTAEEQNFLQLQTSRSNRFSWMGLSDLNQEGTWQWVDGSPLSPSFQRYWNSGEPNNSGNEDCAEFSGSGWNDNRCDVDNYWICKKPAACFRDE

T4: ADP334
T4 chain: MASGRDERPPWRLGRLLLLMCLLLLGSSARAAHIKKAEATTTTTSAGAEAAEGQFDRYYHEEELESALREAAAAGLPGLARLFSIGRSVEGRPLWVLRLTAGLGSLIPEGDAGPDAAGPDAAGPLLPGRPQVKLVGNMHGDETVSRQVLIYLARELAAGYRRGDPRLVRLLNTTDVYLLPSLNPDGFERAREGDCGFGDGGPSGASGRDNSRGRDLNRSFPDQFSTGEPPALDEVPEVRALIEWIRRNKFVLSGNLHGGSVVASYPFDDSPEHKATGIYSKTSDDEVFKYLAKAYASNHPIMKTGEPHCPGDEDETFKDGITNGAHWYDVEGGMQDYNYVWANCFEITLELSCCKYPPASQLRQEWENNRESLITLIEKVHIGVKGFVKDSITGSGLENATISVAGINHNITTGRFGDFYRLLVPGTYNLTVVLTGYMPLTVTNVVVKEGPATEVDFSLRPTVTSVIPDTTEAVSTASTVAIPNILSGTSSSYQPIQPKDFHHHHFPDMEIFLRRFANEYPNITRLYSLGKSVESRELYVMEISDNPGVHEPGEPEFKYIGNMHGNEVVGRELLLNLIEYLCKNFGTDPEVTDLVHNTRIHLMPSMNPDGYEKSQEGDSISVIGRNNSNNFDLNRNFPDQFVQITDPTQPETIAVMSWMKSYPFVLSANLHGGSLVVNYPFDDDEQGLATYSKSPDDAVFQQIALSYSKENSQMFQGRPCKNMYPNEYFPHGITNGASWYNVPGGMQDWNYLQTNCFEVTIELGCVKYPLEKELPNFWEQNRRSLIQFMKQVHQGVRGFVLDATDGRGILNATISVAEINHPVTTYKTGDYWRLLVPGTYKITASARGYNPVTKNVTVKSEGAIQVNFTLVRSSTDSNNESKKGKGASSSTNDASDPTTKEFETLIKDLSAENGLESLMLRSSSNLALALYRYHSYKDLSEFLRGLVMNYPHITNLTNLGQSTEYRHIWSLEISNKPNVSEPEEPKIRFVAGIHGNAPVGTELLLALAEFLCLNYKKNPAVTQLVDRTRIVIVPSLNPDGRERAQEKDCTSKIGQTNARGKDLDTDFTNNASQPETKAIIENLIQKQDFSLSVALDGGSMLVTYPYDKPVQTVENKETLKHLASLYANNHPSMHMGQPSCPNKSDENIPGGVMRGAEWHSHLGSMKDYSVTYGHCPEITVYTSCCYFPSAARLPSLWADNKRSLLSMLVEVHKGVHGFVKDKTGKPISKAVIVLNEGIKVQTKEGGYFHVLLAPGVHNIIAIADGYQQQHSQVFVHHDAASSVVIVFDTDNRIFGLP

B1: ADP193 (protein)
chain: GEEKLTKFDPVMIKEGELFGEVSYDCEYSGFLEIENDDILYYCFFVGEDDHNGLLLRKFHMDDMVWGIPMEVLITRKKINLYILTVDYILSKLILIYSFDEKIRITVFNNYMEESVMSEKISINYEILYKANMISYITYFYKNKKSLCVCGMNRNENILCTFSFDYGLTMKDDHTIEFFLKKKIPLGHYKMQVTFKETEVYFNLYNDLNEANFYELKCVKKQDEYICDIMNKIRETQEYNYKRYTYPSSEHNKYYNDHHNKQPQGKQGQQGGAPLPNLGEEENNFIYKHIVRNKYFQMIVFQKDQKCYLAWSFNSLNINDEITKEISSVPCSNVASYYRQERLIVTLKKNQLGSRNHFFLIYEKLTEKGVGCEFGVGGSLYVTKTFMNNACDMDINNMNVATTNYDEINFALIIPLSFQLNYATCFIWEENVDNNEERSSLYYLEEYTNEKEDIKVYTFYFYKYILIYKNFKKSTCTFESKNNEKLYISFRGDTYYKEYNCNILLDSCDFFLHTQSKINIAYDDDVWQVSEELYDGFVMYNGAYVSLYDVLSRSNAHGLIYIDGKENNAAINLNNIKNNNNNNNNNNNNNNAANNNNIANNANSNNAFGEHEKVITIIIPYGIPSTRTIKIEFLNKQNNEEKRWAYLRLQKNEYIMKKVIGINSADIFDLSYKYYKYNQEKIKFILNDFSETTYLGFICQTKEEIKKSLCTISLVDHSHKNMAINNLFKTNNHILPFLYDQSPPRKIQPYNQIISEFRFVLFKNFHLFLQENKINYILLKCMCSSSSSYINTQKNIELSYLITNEQVSHDFIHTPGILIRPRTNIAHNDYQKNNKGNHKGNNKANNKANDKDSNNNANNNANKNGNNHNDNNNNNQNKDIDINSNYAIHNNNEKVKRTKKKINDAPYDKQDEELPSYDFNDLLHEKKNGASVFDFNFVLFLFICITFF
modifications: bait human Fc-tagged dimer; N-glycosylation sequons mutated in Plasmodium baits
B2: ADP172 (protein)
chain: YLEQIKNGISGHYTEDHNIKNNNCISFSDYERSIKNFAISSHAENNYDNIINEYKKIKDINNNINILSSVHRKGRILYDSFLEINKLENDKKEKHEKEDEYEDNDESFLETEEYEDNEDEKYNKDEDDYAESFIETDEYEDNEDDKYNKDEDDYSESFIETDEYDDNEEEQYNKDEDDYTDSFIETDHYENNDDKNEEEEEYNDQDNDYGYNFLETDEYDDSEEYDYDDKEYGESFLEKEEGEEMKDEEMKDEEMKDVEMKDEEMKDEEMKYDEMKNEEMKYDEMKDEVMKDEEMKDEVMKDEEMKDEQMKYEEFKNEESKNEESKNEESKNEESKNEEFKNEESKNEEFKNEEFKNEDMSYDEYMGYKKKEEDESYNTFNGAKKNNAANSFLEKDLQGDSDDELHSTFYSKNVDKENYDDKNIFYGYSDNDDESFLETDSYEEYEDEDKDVEDEYEESFLQNDEKKMVFYDLYKPEENEAYYEKKQKKEEKEEKEEKEQSLNKQNDMEDQEDNEEYKFEEENKEDLLDVQQDEELPSEGKQKVKGKSFDNEHLNEIQNVADVHAFIQKDMKYLDDLIDEEQTIKDAVKKSAYKGNKKLGNNKKSQMILEEEPEENFEEDADEELNKLMEQEKNIVDKEIKNSKANKANKKLQFNNANKQNKMYMKNEYNNKAKNNKNNKFEQQNYDESYMDDDYEQNEEFNDNNQAEDMKETNELDKINDELLTDQGPNEDTLLENNNKIFDNKFVAHKKREKSISPHSYQKVSTKVQNKEDMENKEEKQLINDEAAMTAEELVELENTEDVNTPTMVETEEIDSDENGNKAS
modifications: bait human Fc-tagged dimer; N-glycosylation sequons mutated in Plasmodium baits

Assays:
Experiment in all cases: AVEXIS screen signal:noise (double-corrected)
[1] = target: T1, ADP320
[2] = target: ADP326
[3] = target: T2, ADP375
[4] = target: T3, ADP389
[5] = target: T4, ADP334

Row | Binder | binding score [1] | binding score [2] | binding score [3] | binding score [4] | binding score [5]
1 | B1 | 7.53 | 9.3 | 8.14 |  | 
2 | B2 |  |  |  | 7.86 | 13.1

From article PMC11098746 (2024)
